Data set [1] relates to biotinylated 7E11-9.5 mimetope peptide. Put plainly: Dot blot: spotted 7E11-C5 abtides probed with biotinylated mimetope peptide. The class given is binding. As to conditions: 1 μL of 1 mg/mL abtide spotted on nitrocellulose; 0.1 mg/mL mimetope; FIG. 4. How it is done: (§1) In some cases, these abtides were used in a dot blot experiment. In those cases, 1 μL of a 1 mg/mL solution of the 38-residue abtides was spotted onto nitrocellulose (0.2 μm or 0.45 μm, Schleicher & Schuell, Keene, NH) strips or circles. After drying (about 1/2 hour), the nitrocellulose was blocked for 1 hour in a solution of 1% BSA in PBS. The nitrocellulose was then allowed to incubate in approximately 5 mL of a solution of 0.1 mg/mL of a biotinylated 7E11-9.5 mimetope peptide (biotin-LYANPGMYSRLHSPA). This mimetope peptide was one of those described in Section 6.1.1 above that were synthesized based upon the nine peptides that were identified in the screening of Section 6.1.1 above. After an hour, the nitrocellulose was washed approximately 5 times with a solution of 1% BSA in PBS. A 1:2000 dilution of Extravidin-Alkaline Phosphatase (4,250 units/mL) (Sigma, St. Louis, Mo.) in PBS was then added and allowed to incubate for 1 hour, after which the nitrocellulose was again washed extensively. Finally, a solution of 5-bromo-4-chloro-3-indolyl phosphate (0.15 mg/mL) and nitro blue tetrazolium (0.3 mg/mL) (Sigma, St Louis, Mo.) (BCIP/NBT) was added as an enzyme substrate. Color was allowed to develop […].
(§2) In FIG. 4, the 7E11-C5 abtides known as clone 14, clone 17, clone 15, clone 16, and clone 13 were tested for their ability to bind the biotinylated 7E11-9.5 mimetope peptide. Also tested, as a positive control, was the monoclonal antibody 7E11-C5. 7E11-C5 was spotted onto the region marked 351 in FIG. 4.

Data set [2] relates to human prostate carcinoma LNCaP xenograft tumors. Put plainly: in vivo. The arrangement: species or system SCID mice. To be noted: mouse, iv. How it is done:
Male SCID mice (C.B-17/Icr Tac—SCID mice) were purchased from Fox Chase (Philadelphia, Pa.) or. Taconic Farms (Germantown, N.Y.), were housed in sterilized cages with filter bonnets, and were given autoclaved laboratory rodent chow (Purina, St. Louis, Mo.), and filtered tap water ad libitum.
1×10^7 cells of the human prostate tumor line LNCaP (Horoszewicz et al., 1987, Anticancer Res. 7:927-936) were injected subcutaneously (s.c.) into the left rear flank of the mice. The cells were growing in exponential phase before harvesting and had been resuspended in 0.2 mL of sterile saline. Tumors were grown in the mice for 2-3 months before abtides were injected into the mice.
For biodistribution studies, abtides were modified at their amino termini with the chelator diethylene-triamine-pentaacetic acid anhydride (DTPA-A) (Sigma, St. Louis, Mo.). Approximately 2 mg of each abtide was initially dissolved in an appropriate volume of 0.1% acetic acid and then 1 mL of 0.1 M sodium bicarbonate, pH 8.0, was added. Two mg of DTPA-A was suspended in 100 AL of dimethylsulfoxide (DMSO), and 10 μL of the abtide solution added to this DTPA-A suspension. […]
In one experiment, abtide clone 14-DPTA-^111In (see Table 2) was injected intravenously (i.v.) into two groups of mice bearing measurable LNCaP xenografts. […] Thus, the total injected dose of radioactivity was about 120-140×10^6 cpm.
The first group of mice was sacrificed 2 hours after injection of the abtide and tissues were dissected for analysis. […] Dissected tissues were weighed and the amount of ^111In in them was determined by gamma counting. The cpm per gram of each tissue was calculated by dividing the cpm of ^111In found in the tissue by the weight in grams of the tissue. […]
In another experiment, abtide clone 17-DPTA-^111In (see Table 2) was injected intravenously into four SCID mice bearing measurable LNCaP xenografts. […] Thus, the total injected dose of radioactivity was about 100-110×10^6 cpm. […]

Data set [3] concerns the target T1, PEM peptide (human).
T1 peptide: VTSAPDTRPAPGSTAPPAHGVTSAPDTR
Put plainly: phage panning on PEM peptide, D38 library, eluted with excess PEM peptide. How it is done: (§3) A peptide comprising this sequence was synthesized and used to isolate abtides from TSAR peptide libraries by methods analogous to those described above. In these experiments, the specific TSAR libraries used were R26, D38 and DC43. See FIGS. 10-12 for description of these libraries. Phage bound to PEM were eluted by either standard acid elution methods, stringent acid elution methods where phage were incubated with the PEM peptide for only 10 minutes prior to washing and elution, or were eluted using excess PEM peptide. Phage from each library were isolated that express peptides capable of binding to PEM.

The target in data set [4] is T1, PEM peptide. The data set can be described thus: phage panning on PEM peptide, DC43 library, acid eluted. How it is done: as §3
In data set [5] the target is T2, mimetope peptide 7E11-9.5 (not fully specified).
T2 peptide: LYANPGMYSRLHSPA
Put plainly: phage panning of TSAR-9 library on plate-bound 7E11-9.5 peptide. How it is done: Next, the mimetope peptide was used to isolate abtides from a peptide library. Fifty to one hundred microliters of the solution of this peptide was used to coat the wells of a 96-well plate, the wells were blocked with 0.5% BSA in PBS, and the wells were used for screening. An aliquot of the TSAR-9 random phage library (containing approximately 3×10¹⁰ phage particles) was used as in the initial screening, and 4 rounds of screening were performed. After the first two rounds, the phage were amplified. Two more rounds of screening were then performed. By this procedure, phage from the TSAR-9 library that expressed peptides capable of binding to the 7E11-9.5 mimetope peptide were identified and isolated. The peptides containing the binding domains of these phage are abtides and were discovered to mimic the binding specificities of monoclonal antibody 7E11-C5. These abtides are termed “7E11-C5 abtides.”

Data set [6] concerns the target T3, biotinylated 7E11-9.5 mimetope peptide (not fully specified (N-terminus); printed as Biotin-LYANPGMYSRLHSPA-NH2).
T3 peptide: LYANPGMYSRLHSPA-NH2
The data set can be described thus: dot blot, synthetic abtide spotted on nitrocellulose, biotinylated mimetope in solution. How it is done:
as §1, with “(biotin-[…]).” for “(biotin-LYANPGMYSRLHSPA).”
as §2

In data set [7] the target is T1, PEM peptide. Put plainly: phage panning on PEM peptide, DC43 library, eluted with excess PEM peptide. How it is done:
as §3

Where a SMILES comes first, the peptide text is derived from it. Where no end group is shown, it is not given here. The star is where a group is joined. DTPA = O=C(O)CN(CCN(CC(=O)O)CC(=O)O)CCN(CC(=O)O)CC(=O)*

With “DLSRNLDFGRFLLYNAYVPGFTPTFISLTAEHLSSPKG [clone 17]”, in data set [1], the “binding of biotinylated 7E11-9.5 mimetope peptide in dot blot” value is “bound the mimetope”. Consider `CC[C@H](C)[C@H](NC(=O)[C@H](Cc1ccccc1)NC(=O)[C@@H](NC(=O)[C@@H]1CCCN1C(=O)[C@@H](NC(=O)[C@H](Cc1ccccc1)NC(=O)CNC(=O)[C@@H]1CCCN1C(=O)[C@@H](NC(=O)[C@H](Cc1ccc(O)cc1)NC(=O)[C@H](C)NC(=O)[C@H](CC(N)=O)NC(=O)[C@H](Cc1ccc(O)cc1)NC(=O)[C@H](CC(C)C)NC(=O)[C@H](CC(C)C)NC(=O)[C@H](Cc1ccccc1)NC(=O)[C@H](CCCNC(=N)N)NC(=O)CNC(=O)[C@H](Cc1ccccc1)NC(=O)[C@H](CC(=O)O)NC(=O)[C@H](CC(C)C)NC(=O)[C@H](CC(N)=O)NC(=O)[C@H](CCCNC(=N)N)NC(=O)[C@H](CO)NC(=O)[C@H](CC(C)C)NC(=O)[C@H](CC(=O)O)NC(=O)CN(CCN(CCN(CC(=O)O)CC(=O)O)CC(=O)O)CC(=O)O)C(C)C)[C@@H](C)O)[C@@H](C)O)C(=O)N[C@@H](CO)C(=O)N[C@@H](CC(C)C)C(=O)N[C@H](C(=O)N[C@@H](C)C(=O)N[C@@H](CCC(=O)O)C(=O)N[C@@H](Cc1c[nH]cn1)C(=O)N[C@@H](CC(C)C)C(=O)N[C@@H](CO)C(=O)N[C@@H](CO)C(=O)N1CCC[C@H]1C(=O)N[C@@H](CCCCN)C(=O)NCC(N)=O)[C@@H](C)O` [abtide clone 17-DPTA-^111In, metal not drawn] ({DTPA}-DLSRNLDFGRFLLYNAYVPGFTPTFISLTAEHLSSPKG-NH2), for which, in data set [2], the “localization to LNCaP xenograft tumors” value was “localized to LNCaP xenograft tumors”. Consider “CGRAYCLSGNYNIFGALFPGVSTPYADVGHDDAQSWRR [clone 15]”, for which the “binding of biotinylated 7E11-9.5 mimetope peptide in dot blot” value in data set [1] is listed as “bound the mimetope”. For the molecule GRGSDMREHWPWSMPLILDQHANDPSPRAQSHYYSHPF (eluted with excess PEM peptide) [MP-30], the binding result in the data set with PEM peptide [3] was “binds”. As to EEKQGGRWSTMMPRPWCHEGGCGFLYYDAMTKPKTPPIMRTAA (acid eluted) [MA-8], in the data set with PEM peptide [4], the binding result is reported as “binds”. On to GSFESARGVTCIGNHSIGAHGCGPLRSYASFNRGSGRRH (acid eluted) [V22], for which the binding result in the data set with PEM peptide [4] is reported as “binds”.

B1: 7E11-C5 abtide clone 14 (peptide)
peptide: GIINANDPLPFWFMSPYTPGPAPIDINASRALVSNESG
notes: tested afterwards as synthetic 38-residue peptide (dot blot, ELISA, sandwich assay)
Consider B1, for which the binding result in data set [5] and in data set [6] was “binds” in each case.

B2: 7E11-C5 abtide clone 15 (peptide)
peptide: CGRAYCLSGNYNIFGALFPGVSTPYADVGHDDAQSWRR
notes: tested afterwards as synthetic 38-residue peptide
In the case of B2, the binding result in data set [5] and in data set [6] was “binds” each time.

B3: 7E11-C5 abtide clone 17 (peptide)
peptide: DLSRNLDFGRFLLYNAYVPGFTPTFISLTAEHLSSPKG
notes: as for B2
B3: the binding result in data set [5] and in data set [6] was “binds” each time. As to LPRPFDDASWKLRAVKESPDGCGFGSPLLFPPYSGLPTFSSCD (acid eluted) [MA-21], in the data set with PEM peptide [4], the binding result is reported as “binds”. For the molecule IDWNWLERGQHNRGYLHSFPDAKSQPTRGPRVAPNGND (eluted with excess PEM peptide) [MP-20], the binding result with PEM peptide [3] is “binds”. NTCWTDLFWHGLPGGDLPRDGCGLPSELTTHPSRERRDASEN [MA-13]: the binding result with PEM peptide [7] was “binds”.

The values are drawn from US20040229289A1, “Antigen binding peptides (abtides) from peptide libraries” (Cytogen Corporation, priority 1994, published 2004).
